Measured values: US20240156979A1

Molecular target: Siglec-specific antibody for Siglec-9 (R&D Systems MAB1139)
Assay: ForteBio Octet; construct captured on AHC biosensor, antibody titrated; 1:1 fit

Kd: < 10 nM
Substance: Sig-9-Fc (Fc fusion)
